Laboratory results as given in US20130330355A1 (APEXIGEN, published 2013).
Each block holds one binder with its values, some of them ahead of it.

What was measured:
recombinant human IL-1β [1] = target: T1, recombinant human IL-1β (human, UniProt P01584 117-269); assay: method not given
T1 construct: The assays (SPR, TF-1 proliferation) say only 'IL-1β'; also called hIL-1β

recombinant human IL-1β [2] = target: T1, recombinant human IL-1β; assay: cross-species reactivity assay, antibody titrated on IL-1β of each species, readout OD405nm
monkey IL-1β = monkey IL-1β (monkey); assay: as above
mouse IL-1β = mouse IL-1β (mouse, UniProt P10749 118-269); assay: as above
recombinant human IL-1β [3] = target: T1, recombinant human IL-1β; assay: cell-based or functional assay
recombinant human IL-1β [4] = target: T1, recombinant human IL-1β; assay: SPR
Experimental: Antigen binding affinities of anti-IL-1β antibodies were measured by surface Plasmon resonance (SPR).

Sequence of mouse IL-1β (P10749 118-269 limits assumed): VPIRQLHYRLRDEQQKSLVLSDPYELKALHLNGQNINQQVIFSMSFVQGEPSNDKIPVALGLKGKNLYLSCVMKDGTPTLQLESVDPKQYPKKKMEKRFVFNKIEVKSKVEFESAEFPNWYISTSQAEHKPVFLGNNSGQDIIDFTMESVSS
Sequence of monkey IL-1β (monkey) (P48090 117-269): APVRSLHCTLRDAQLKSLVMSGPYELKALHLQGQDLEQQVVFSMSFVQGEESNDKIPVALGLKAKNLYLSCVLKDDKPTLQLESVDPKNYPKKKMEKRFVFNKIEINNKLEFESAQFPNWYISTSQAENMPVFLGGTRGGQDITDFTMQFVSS

- Kd (recombinant human IL-1β [1]): 0.199 nM
- EC50 (read off the curve) (recombinant human IL-1β [2]): ~600 ng/mL
- EC50 (read off the curve) (monkey IL-1β): ~600 ng/mL
- binding result (mouse IL-1β): no binding (tested: 10 ug/ml)
B1: APX002 (humanized Q26) (antibody, V domains shown)
VH: EVQLVESGGGLVQPGGSLRLSCAVSGFSLDVYTMTWVRQAPGKGLEWIGYIWSGGSASYASWAKGRFTISKDSSKNTVYLQINSLRAEDTAVYFCARVKMISNIETFDPWGPGTLVTVSS
VL: DIQMTQSPSSVSASVGDRVTIKCQASERIYSGLAWYQQKPGKRPKLLIYRASTLASGVPSRFSGSGSGTDFTLTISSLQPEDFATYYCQQGVSSSDIDNVFGGGTKVEIK

- IC 50, neutralization of IL-1β-induced TF-1 cell proliferation (recombinant human IL-1β [3]): 1.13 ng/mL
B2: Q17 rabbit anti-IL-1β antibody (antibody, V domains shown)
VH: QSVEESGGRLVTPGTPLILTCTVSGFSLDVYTVTWVRQAPGKGLEWIGYIWSGGSASYASWAKGRFTISKTSTTVDLKISSPTTEDTATYFCARVKMISNIETFDPWGPGTLVTVSS
VL: AYDMTQTPASVEVVVGGTVTIKCQASERIYSGLAWYQQKPGQRPKLLIYRASTLASGVPSRFSGSGSGTEFTLTISDLECADAATYYCHQGVSSSDIDNVFGGGTEVVVK

- Kd (recombinant human IL-1β [4]): 0.199 nM
- koff (recombinant human IL-1β [4]): 3.8e-05 s⁻¹
- kon (recombinant human IL-1β [4]): 191000 M⁻¹ s⁻¹
- IC 50, neutralization of IL-1β-induced TF-1 cell proliferation (recombinant human IL-1β [3]): 0.54 ng/mL
B3: clone Q26 rabbit anti-IL-1β antibody (antibody, V domains shown)
VH: QSVEESGGRLVTPGTPLILTCTVSGFSLDVYTVTWVRQAPGKGLEWIGYIWSGGSASYASWAKGRFTISKTSTTVDLKISSPTTEDTATYFCARVKMISNIETFDPWGPGTLVTVSS
VL: AYDMTQTPASVEVVVGGTVTIKCQASERIYSGLAWYQQKPGQRPKLLIYRASTLASGVPSRFSGSGSGTEFTLTISDLECADAATYYCHQGVSSSDIDNVFGGGTEVVVK
notes: Recombinant rabbit IgG expressed in 293-6E cells; the rabbit constant regions are not; also called parental rabbit Q26

- IC 50, neutralization of IL-1β-induced TF-1 cell proliferation (recombinant human IL-1β [3]): 0.55 ng/mL
B4: Q34 rabbit anti-IL-1β antibody (antibody, V domains shown)
VH: QSVEESGGRLVTPGTPLILTCTVSGFSLDVYTVTWVRQAPGKGLEWIGYIWSGGSASYASWAKGRFTISKTSTTVDLKISSPTTEDTATYFCARVKMISNIETFDPWGPGTLVTVSS
VL: AYDMTQTPASVEVVVGGTVTIKCQASERIYSGLAWYQQKPGQRPKLLIYRASTLASGVPSRFSGSGSGTEFTLTISDLECADAATYYCHQGVSSSDIDNVFGGGTEVVVK
